The values that follow come from patent US20120219551A1 (MacroGenics, published 2012).

Assay [1] deals with T1, FcγRIIIA, soluble monomeric protein (extracellular region joined to the linker-AVITAG sequence) (human, UniProt P08637 17-208).
T1 construct: extracellular domain; also called FcRIIIA; FcR3A
Put plainly: ELISA.

Assay [2] has as its target T1, FcγRIIIA, soluble monomeric protein …. Put plainly: ELISA. This is another data set of the same source. (In an ELISA, binding on a coated surface is turned into a signal by an enzyme label.)
The target of the next assay is T2, CD16A(V158) (human, UniProt P08637 17-208).
T2 construct: extracellular domain; Construct as told for the BIAcore assays of Section 7.7; also called FcγRIIIA 158V; 3aV158
T2 sequence (P08637 17-208 F176V): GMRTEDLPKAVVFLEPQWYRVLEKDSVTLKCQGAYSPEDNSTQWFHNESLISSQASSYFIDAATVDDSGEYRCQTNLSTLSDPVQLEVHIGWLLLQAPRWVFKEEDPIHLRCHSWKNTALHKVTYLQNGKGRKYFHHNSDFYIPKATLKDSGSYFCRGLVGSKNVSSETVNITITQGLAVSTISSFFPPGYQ
Put plainly: relative off-rate wt/variant; method not given (BIAcore elsewhere).

For a further assay, the target named is T3, CD16A(F158) (human, UniProt P08637 17-208).
T3 construct: extracellular domain; Construct as told for the BIAcore assays of Section 7.7; also called 3aF158
T3 sequence (P08637 17-208): as the sequence (P08637 17-208 F176V) above, with V160F counted along it
The description is as above.

The target of another assay is T4, CD32B-G2Ag (human, UniProt P31994 43-217).
T4 construct: extracellular domain; Soluble dimeric protein as told for Section 7.7; also called FcγRIIB-Fc fusion protein; 2bFcagl; not shown: human IgG2 hinge-CH2-CH3 domain
T4 sequence (looked up): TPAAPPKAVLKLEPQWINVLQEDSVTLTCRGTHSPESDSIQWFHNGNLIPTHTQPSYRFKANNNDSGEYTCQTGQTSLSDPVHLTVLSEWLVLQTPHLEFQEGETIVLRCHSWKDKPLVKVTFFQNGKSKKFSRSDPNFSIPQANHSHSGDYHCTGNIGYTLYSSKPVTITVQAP
The assay is described as above.

The next assay concerns the target T5, CD32A-G2Ag (human, UniProt P12318 34-217).
T5 construct: extracellular domain; Soluble dimeric protein as told for Section 7.7 (there 131H); also called FcγRIIA-Fc fusion protein; 2aFcagl; not shown: human IgG2 hinge-CH2-CH3 domain
T5 sequence (looked up): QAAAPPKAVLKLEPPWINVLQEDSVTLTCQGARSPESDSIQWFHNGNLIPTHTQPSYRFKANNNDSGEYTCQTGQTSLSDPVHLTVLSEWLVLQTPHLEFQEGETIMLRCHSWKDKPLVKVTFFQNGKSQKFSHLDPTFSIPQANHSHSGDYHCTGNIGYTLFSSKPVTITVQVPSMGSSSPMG
Described as above.

The target in the next assay is T6, CD16A (158F) (human, UniProt P08637 17-208).
T6 construct: extracellular domain; Soluble monomeric construct as told for the ch4D5 BIAcore assays of section 7.7
T6 sequence (P08637 17-208): as the sequence (P08637 17-208 F176V) above, with V160F counted along it
Put plainly: off-rate ratio vs wild-type Fc (BIAcore per the filing's koff tables). In general terms: Surface plasmon resonance follows binding to a sensor surface in real time, without labels.

Another assay deals with T7, CD32A (131H) (human, UniProt P12318 34-217).
T7 construct: extracellular domain; Soluble dimeric fusion as told for the ch4D5 BIAcore assays of section 7.7; also called FcγRIIA 131H; not shown: hinge-CH2-CH3 domain of human IgG2
T7 sequence (looked up): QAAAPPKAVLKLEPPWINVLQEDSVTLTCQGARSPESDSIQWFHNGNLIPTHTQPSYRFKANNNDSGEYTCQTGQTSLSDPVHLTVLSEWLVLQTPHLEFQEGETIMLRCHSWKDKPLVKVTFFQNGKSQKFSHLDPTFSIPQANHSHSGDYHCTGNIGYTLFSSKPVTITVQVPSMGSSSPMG
Described as above.

A further assay concerns the target T8, CD32A (131R) (human, UniProt P12318 34-217).
T8 construct: extracellular domain; Soluble dimeric fusion as told for FcγRIIA in section 7.7 (there for 131H); also called FcγRIIA 131R; not shown: hinge-CH2-CH3 domain of human IgG2
T8 sequence (looked up): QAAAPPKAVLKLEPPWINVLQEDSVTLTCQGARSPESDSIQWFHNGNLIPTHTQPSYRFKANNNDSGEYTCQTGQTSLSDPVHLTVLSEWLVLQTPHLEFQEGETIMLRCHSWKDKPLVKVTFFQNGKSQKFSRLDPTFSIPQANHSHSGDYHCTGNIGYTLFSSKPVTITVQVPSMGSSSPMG
The description is as above.

The target in the next assay is T9, CD32B (human, UniProt P31994 43-217).
T9 construct: extracellular domain; Soluble dimeric fusion as told for the ch4D5 BIAcore assays of section 7.7; also called FcγRIIB; FcγRII-B; not shown: hinge-CH2-CH3 domain of human IgG2
T9 sequence (looked up): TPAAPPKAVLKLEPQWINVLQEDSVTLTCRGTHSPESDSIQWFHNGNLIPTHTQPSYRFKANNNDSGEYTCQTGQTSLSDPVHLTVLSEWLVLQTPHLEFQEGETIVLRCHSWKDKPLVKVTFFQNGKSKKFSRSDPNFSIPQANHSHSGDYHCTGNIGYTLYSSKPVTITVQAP
The description is as above.

The target in the next assay is T10, CD16A (158V) (human, UniProt P08637 17-208).
T10 construct: extracellular domain; Soluble monomeric construct as told for the ch4D5 BIAcore assays of section 7.7; also called FcγRIIIA 158V; FcγRIIIA V158
T10 sequence (P08637 17-208 F176V): as the sequence (P08637 17-208 F176V) above
The assay is described as above.

T1 sequence (P08637 17-208 F176V limits assumed, form in doubt): as the sequence (P08637 17-208 F176V) above

B1: Fc variant K334E, T359N, T366S (antibody)
chain: ASTKGPSVFPLAPSSKSTSGGTAALGCLVKDYFPEPVTVSWNSGALTSGVHTFPAVLQSSGLYSLSSVVTVPSSSLGTQTYICNVNHKPSNTKVDKKVEPKSCDKTHTCPPCPAPELLGGPSVFLFPPKPKDTLMISRTPEVTCVVVDVSHEDPEVKFNWYVDGVEVHNAKTKPREEQYNSTYRVVSVLTVLHQDWLNGKEYKCKVSNKALPAPIEETISKAKGQPREPQVYTLPPSRDELNKNQVSLSCLVKGFYPSDIAVEWESNGQPENNYKTTPPVLDSDGSFFLYSKLTVDKSRWQQGNVFSCSVMHEALHNHYTQKSLSLSPGK
Regarding B1, in assay [1], the “fold change vs WT” value was 1.5 fold. Further, in assay [2], the “ELISA binding, fold vs WT” value came out at 1.5 fold.

B2: Antibody 2B6 3.5 Fc Variant 49 (F243L, R292P, Y300L, V305I, P396L) (antibody)
heavy: QVQLVQSGAEVKKPGASVKVSCKASGYTFTNYWIHWVRQAPGQGLEWIGVIDPSDTYPNYNKKFKGRVTMTVDTSTSTAYMELRSLRSDDTAVYYCARNGDSDYYSGMDYWGQGTTVTVSSASTKGPSVFPLAPSSKSTSGGTAALGCLVKDYFPEPVTVSWNSGALTSGVHTFPAVLQSSGLYSLSSVVTVPSSSLGTQTYICNVNHKPSNTKVDKRVEPKSCDKTHTCPPCPAPELLGGPSVFLLPPKPKDTLMISRTPEVTCVVVDVSHEDPEVKFNWYVDGVEVHNAKTKPPEEQYNSTLRVVSILTVLHQDWLNGKEYKCKVSNKALPAPIEKTISKAKGQPREPQVYTLPPSRDELTKNQVSLTCLVKGFYPSDIAVEWESNGQPENNYKTTPLVLDSDGSFFLYSKLTVDKSRWQQGNVFSCSVMHEALHNHYTQKSLSLSPGK
light: EIVLTQSPDFQSVTPKEKVTFTCRTSQSIGTNIHWYQQKPDQSPKLLIKEVSESISGVPSRFSGSGSGTDFTLTINSLEAEDAATYYCQQSNTWPFTFGGGTKVEIKRTVAAPSVFIFPPSDEQLKSGTASVVCLLNNFYPREAKVQWKVDNALQSGNSQESVTEQDSKDSTYSLSSTLTLSKADYEKHKVYACEVTHQGLSSPVTKSFNRGEC
notes: Fc variant of m46; also called h2B6 3.5 0088; copies: 2 + 2
As for B2, the “Koff ratio (wt/mut)” value with CD16A(V158) is 10.1 wt/mut; with CD16A(F158) it was 8.3 wt/mut; with CD32B-G2Ag it was 3.2 wt/mut; with CD32A-G2Ag, 1.4 wt/mut.

B3: ch4D5-FcMT2 (antibody, human IgG1, kappa)
heavy: QVQLQQSGPELVKPGASLKLSCTASGFNIKDTYIHWVKQRPEQGLEWIGRIYPTNGYTRYDPKFQDKATITADTSSNTAYLQVSRLTSEDTAVYYCSRWGGDGFYAMDYWGQGASVTVSSASTKGPSVFPLAPSSKSTSGGTAALGCLVKDYFPEPVTVSWNSGALTSGVHTFPAVLQSSGLYSLSSVVTVPSSSLGTQTYICNVNHKPSNTKVDKRVEPKSCDKTHTCPPCPAPELVGGPSVFLLPPKPKDTLMISRTPEVTCVVVDVSHEDPEVKFNWYVDGVEVHNAKTKPPEEQYNSTLRVVSVLTVLHQDWLNGKEYKCKVSNKALPAPIEKTISKAKGQPREPQVYTLPPSRDELTKNQVSLTCLVKGFYPSDIAVEWESNGQPENNYKTTPLVLDSDGSFFLYSKLTVDKSRWQQGNVFSCSVMHEALHNHYTQKSLSLSPGK
light: DIVMTQSHKFMSTSVGDRVSITCKASQDVNTAVAWYQQKPGHSPKLLIYSASFRYTGVPDRFTGSRSGTDFTFTISSVQAEDLAVYYCQQHYTTPPTFGGGTKVEIKRTVAAPSVFIFPPSDEQLKSGTASVVCLLNNFYPREAKVQWKVDNALQSGNSQESVTEQDSKDSTYSLSSTLTLSKADYEKHKVYACEVTHQGLSSPVTKSFNRGEC
notes: Anti-Her2/neu; also called ch45D4-FcMT2; L235V F243L R292P Y300L P396L
With B3, the “Wild-Type Koff/Mutant Koff” value with CD16A (158F) was determined as 4.8; with CD32A (131H), 1.3; with CD32A (131R), 0.4; with CD32B, 0.4; with CD16A (158V) it was 6.1.
